# Values quoted from earlier work in article PMC8031367.
# Biological target: Cys403 (UniProt position 403, RPVIHCRAGVG)
# Assay: chemical modification
substance,measurement,value
"YopH (Yersinia protein tyrosine phosphatase) (Yersinia pestis (as stated for YopH in this article; the title of the cited source, ref 59, says only 'Yersinia'))",pKa,4.67
